In publication PMC6211522:

How the values were obtained:
[1] = biological target: FLAG-tagged PARP-1 in HEK293T cells (UniProt P09874); assay: co-IP (anti-FLAG) and Western blotting, band intensity by ImageJ; conditions: 48 h post-transfection, parent: 1.0
[2] = biological target: His-tagged mouse PARP-1 protein (Sino Biological) (mouse) (UniProt P11103); assay: SPR; […], CM5 chip; […], HBS-EP (10 mM HEPES pH 7.4, 150 mM NaCl, 3 mM EDTA, 0.005% P20); 1:1 binding model
[3] = biological target: MHV-68 viral PARP-1-interacting protein (vPIP; ORF49), purified recombinant (murine gammaherpesvirus 68 (MHV-68)); assay: SEC-MALS; 50 mM HEPES pH 7.5, 100 mM NaCl; WTC-050S5 column, DAWN HELEOS II and Optilab T-rEX detectors

Sequence of UniProt P09874 (P09874 whole entry): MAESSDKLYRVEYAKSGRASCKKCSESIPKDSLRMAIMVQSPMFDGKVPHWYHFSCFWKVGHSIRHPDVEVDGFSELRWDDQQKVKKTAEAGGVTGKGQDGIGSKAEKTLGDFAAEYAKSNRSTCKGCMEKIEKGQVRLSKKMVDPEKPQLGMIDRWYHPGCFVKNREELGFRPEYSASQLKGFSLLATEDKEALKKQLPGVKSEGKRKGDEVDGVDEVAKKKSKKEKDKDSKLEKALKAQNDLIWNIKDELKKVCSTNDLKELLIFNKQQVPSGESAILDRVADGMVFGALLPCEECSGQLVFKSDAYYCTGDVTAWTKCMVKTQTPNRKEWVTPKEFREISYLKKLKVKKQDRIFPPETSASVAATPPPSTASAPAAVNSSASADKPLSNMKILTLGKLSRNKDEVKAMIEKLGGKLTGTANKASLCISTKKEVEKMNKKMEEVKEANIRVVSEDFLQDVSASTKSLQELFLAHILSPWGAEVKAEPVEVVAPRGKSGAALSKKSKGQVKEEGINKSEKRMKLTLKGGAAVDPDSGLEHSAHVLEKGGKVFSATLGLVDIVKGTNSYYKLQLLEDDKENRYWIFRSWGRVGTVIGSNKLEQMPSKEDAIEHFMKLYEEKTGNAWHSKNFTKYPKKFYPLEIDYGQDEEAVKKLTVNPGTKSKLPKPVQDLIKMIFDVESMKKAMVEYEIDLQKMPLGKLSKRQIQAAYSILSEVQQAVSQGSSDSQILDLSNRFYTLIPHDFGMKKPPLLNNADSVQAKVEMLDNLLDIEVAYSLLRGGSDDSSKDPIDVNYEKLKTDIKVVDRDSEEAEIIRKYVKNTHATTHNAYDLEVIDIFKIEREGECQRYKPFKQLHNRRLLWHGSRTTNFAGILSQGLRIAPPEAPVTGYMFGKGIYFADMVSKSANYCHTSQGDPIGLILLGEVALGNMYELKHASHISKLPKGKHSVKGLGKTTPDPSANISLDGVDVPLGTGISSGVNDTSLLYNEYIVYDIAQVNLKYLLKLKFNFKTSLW
Sequence of UniProt P11103 (P11103 whole entry): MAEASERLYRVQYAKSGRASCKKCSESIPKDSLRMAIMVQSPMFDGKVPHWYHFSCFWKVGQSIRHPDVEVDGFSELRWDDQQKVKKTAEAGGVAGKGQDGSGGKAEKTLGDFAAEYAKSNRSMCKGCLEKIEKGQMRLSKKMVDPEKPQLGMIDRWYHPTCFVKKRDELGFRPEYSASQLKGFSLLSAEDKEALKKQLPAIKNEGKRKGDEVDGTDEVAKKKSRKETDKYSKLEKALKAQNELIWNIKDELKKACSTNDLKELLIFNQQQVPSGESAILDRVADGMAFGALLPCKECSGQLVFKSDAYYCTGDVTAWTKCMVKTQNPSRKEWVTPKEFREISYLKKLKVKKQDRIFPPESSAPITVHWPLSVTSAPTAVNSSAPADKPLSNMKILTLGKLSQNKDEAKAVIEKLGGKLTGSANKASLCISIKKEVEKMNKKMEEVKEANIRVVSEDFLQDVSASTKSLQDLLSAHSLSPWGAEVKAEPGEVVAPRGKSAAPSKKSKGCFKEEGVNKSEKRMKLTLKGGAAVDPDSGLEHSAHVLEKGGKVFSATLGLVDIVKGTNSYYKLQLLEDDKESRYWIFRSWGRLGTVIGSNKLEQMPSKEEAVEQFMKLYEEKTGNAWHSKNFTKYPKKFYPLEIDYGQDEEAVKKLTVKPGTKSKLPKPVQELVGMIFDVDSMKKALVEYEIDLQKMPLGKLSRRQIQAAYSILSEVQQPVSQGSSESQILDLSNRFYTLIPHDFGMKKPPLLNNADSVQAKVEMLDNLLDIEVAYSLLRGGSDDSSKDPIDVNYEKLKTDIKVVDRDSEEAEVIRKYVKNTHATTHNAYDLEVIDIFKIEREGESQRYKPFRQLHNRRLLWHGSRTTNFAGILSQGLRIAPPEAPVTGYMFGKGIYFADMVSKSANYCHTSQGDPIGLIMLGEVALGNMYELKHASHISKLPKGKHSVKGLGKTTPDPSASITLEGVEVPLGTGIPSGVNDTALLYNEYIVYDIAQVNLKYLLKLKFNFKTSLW

Substance | ratio to parent [1] | Kd [2] [nM] | stoichiometry N [3]
MYC-tagged vPIP wild type in HEK293T cells H47A; D50A | 1.4 | – | –
ORF49_(KSHV), purified recombinant (natural protein) | – | 410 | –
MYC-tagged vPIP wild type in HEK293T cells F5A; S12A; T16A | 0.5 | – | –
MHV-68 viral PARP-1-interacting protein (vPIP; ORF49), purified recombinant (natural protein) | – | 930 | 2
MYC-tagged vPIP wild type in HEK293T cells F5A; S12A; T16A; H47A; D50A | 0.3 | – | –
